Data reported in patent US20170081400A1 (CEPHALON, published 2017).
Residue numbers refer to the chain shown, from its start. One block for each binder: values may come before it.

How the values were obtained:
[1] = target: T1, human TL1A extracellular domain with N-terminal HIS and FLAG tag (human, UniProt O95150 72-251); assay: SPR Run 7, antibody on Protein A, TL1A 5 ug/mL, timepoint 44
T1 construct: the whole entry is named; also called TNFSF15
T1 sequence: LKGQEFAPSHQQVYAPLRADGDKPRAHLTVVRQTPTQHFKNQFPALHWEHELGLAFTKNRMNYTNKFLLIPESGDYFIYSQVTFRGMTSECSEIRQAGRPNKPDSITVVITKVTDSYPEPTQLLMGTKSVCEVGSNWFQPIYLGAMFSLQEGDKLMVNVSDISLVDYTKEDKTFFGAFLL
Description: (§1) 1.5. Antibody expression and antigen binding as determined by SPR. Using a CM5 sensor chip (GE Healthcare) Protein A (Pierce) was coupled to the chip surface using an amine coupling kit (GE Healthcare). Protein A was coupled on flow cell 1 and 2 (or alternatively 3 and 4) using a BIACORE® T200. […] The amount of supernatant or purified protein (as well as the concentration) injected during the capture stage varied between runs and is specified in the header of the Tables 3-11. At the end of injection of the supernatant or purified antibody the change in response units was measured. This value was reported as Capture Level in Tables 3-11. […] The response units were measured prior to the end of the dissociation phase. […] The sensorgrams were double referenced (flow cell 2 is subtracted from flow cell 1 and a buffer blank). As there were a large number of antibody variants to screen, these were screened across different runs (Tables 3-11). […] A summary of the conditions used in each run is below:
(§2) 2.1. […] In some experiment the antibodies were purified using Protein A chromatography (See 1.4) and purified antibodies were used in BIACORE® (GE Healthcare) experiments.

[2] = target: T1, human TL1A extracellular domain with …; assay: SPR Run 7, antibody on Protein A, TL1A 5 ug/mL, timepoint 220
Description: as §1, §2

- TL1A Binding Level (Early) [1]: 89 RU
- TL1A Binding Level (Late) [2]: 82 RU
B1: 320-492 (antibody, human IgG1, name in Kabat numbering, V domains shown)
VH: QVQLVQSGAEVKKPGASVKVSCKASGYTFTSYDINWVRQAPGQGLEWMGWQNPNSGNTGYAQKFQGRVTMTADRSTSTAYMELSSLRSEDTAVYYCAREVPETAAFEYWGQGTLVTVSS
VL: QSVLTQPPSVSGAPGQRVTISCTSSSSDIGAGLGVHWYQQLPGTAPKLLIEGYYNRPSGVPDRFSGSKSGTSASLTITGLLPEDEGDYYCQSYDGTLSALFGGGTKLTVLG
notes: full-length human IgG1, lambda

- TL1A Binding Level (Early) [1]: 73 RU
- TL1A Binding Level (Late) [2]: 67 RU
B2: 320-515 (antibody, human IgG1, name in Kabat numbering, V domains shown)
VH: B1 VH with Q51L, N54S
VL: B1 VL
notes: as for B1

- TL1A Binding Level (Early) [1]: 41 RU
- TL1A Binding Level (Late) [2]: 6 RU
B3: 320-503 (antibody, human IgG1, name in Kabat numbering, V domains shown)
VH: B1 VH with Q51L, N52W
VL: B1 VL
notes: as for B1

- TL1A Binding Level (Early) [1]: 106 RU
- TL1A Binding Level (Late) [2]: 98 RU
B4: 320-511 (antibody, human IgG1, name in Kabat numbering, V domains shown)
VH: B1 VH with Q51L, P53L
VL: B1 VL
notes: as for B1

- TL1A Binding Level (Early) [1]: 169 RU
- TL1A Binding Level (Late) [2]: 153 RU
B5: 320-518 (antibody, human IgG1, name in Kabat numbering, V domains shown)
VH: B1 VH with Q51L, N54H
VL: B1 VL
notes: as for B1

- TL1A Binding Level (Early) [1]: 118 RU
- TL1A Binding Level (Late) [2]: 108 RU
B6: 320-501 (antibody, human IgG1, name in Kabat numbering, V domains shown)
VH: B1 VH with Q51L, N52H
VL: B1 VL
notes: as for B1

- TL1A Binding Level (Early) [1]: 96 RU
- TL1A Binding Level (Late) [2]: 88 RU
B7: 320-514 (antibody, human IgG1, name in Kabat numbering, V domains shown)
VH: B1 VH with Q51L, N54A
VL: B1 VL
notes: as for B1

- TL1A Binding Level (Early) [1]: 174 RU
- TL1A Binding Level (Late) [2]: 162 RU
B8: 320-520 (antibody, human IgG1, name in Kabat numbering, V domains shown)
VH: B1 VH with Q51L, N54L
VL: B1 VL
notes: as for B1

- TL1A Binding Level (Early) [1]: 134 RU
- TL1A Binding Level (Late) [2]: 124 RU
B9: 320-526 (antibody, human IgG1, name in Kabat numbering, V domains shown)
VH: B1 VH with Q51L, S55H
VL: B1 VL
notes: as for B1

- TL1A Binding Level (Early) [1]: 93 RU
- TL1A Binding Level (Late) [2]: 87 RU
B10: 320-496 (antibody, human IgG1, name in Kabat numbering, V domains shown)
VH: B1 VH with Q51W
VL: B1 VL
notes: as for B1

- TL1A Binding Level (Early) [1]: 99 RU
- TL1A Binding Level (Late) [2]: 90 RU
B11: 320-513 (antibody, human IgG1, name in Kabat numbering, V domains shown)
VH: B1 VH with Q51L, P53Y
VL: B1 VL
notes: as for B1

- TL1A Binding Level (Early) [1]: 88 RU
- TL1A Binding Level (Late) [2]: 59 RU
B12: 320-502 (antibody, human IgG1, name in Kabat numbering, V domains shown)
VH: B1 VH with Q51L, N52K
VL: B1 VL
notes: as for B1

- TL1A Binding Level (Early) [1]: 55 RU
- TL1A Binding Level (Late) [2]: 49 RU
B13: 320-524 (antibody, human IgG1, name in Kabat numbering, V domains shown)
VH: B1 VH with Q51L, S55Q
VL: B1 VL
notes: as for B1

- TL1A Binding Level (Early) [1]: 33 RU
- TL1A Binding Level (Late) [2]: 17 RU
B14: 320-525 (antibody, human IgG1, name in Kabat numbering, V domains shown)
VH: B1 VH with Q51L, S55D
VL: B1 VL
notes: as for B1

- TL1A Binding Level (Early) [1]: 19 RU
- TL1A Binding Level (Late) [2]: 12 RU
B15: 320-508 (antibody, human IgG1, name in Kabat numbering, V domains shown)
VH: B1 VH with Q51L, P53D
VL: B1 VL
notes: as for B1

- TL1A Binding Level (Early) [1]: 150 RU
- TL1A Binding Level (Late) [2]: 138 RU
B16: 320-494 (antibody, human IgG1, name in Kabat numbering, V domains shown)
VH: B1 VH with Q51H
VL: B1 VL
notes: as for B1

- TL1A Binding Level (Early) [1]: 135 RU
- TL1A Binding Level (Late) [2]: 125 RU
B17: 320-497 (antibody, human IgG1, name in Kabat numbering, V domains shown)
VH: B1 VH with Q51L, N52A
VL: B1 VL
notes: as for B1

- TL1A Binding Level (Early) [1]: 122 RU
- TL1A Binding Level (Late) [2]: 113 RU
B18: 320-499 (antibody, human IgG1, name in Kabat numbering, V domains shown)
VH: B1 VH with Q51L, N52Q
VL: B1 VL
notes: as for B1

- TL1A Binding Level (Early) [1]: 88 RU
- TL1A Binding Level (Late) [2]: 82 RU
B19: 320-523 (antibody, human IgG1, name in Kabat numbering, V domains shown)
VH: B1 VH with Q51L, S55A
VL: B1 VL
notes: as for B1

- TL1A Binding Level (Early) [1]: 52 RU
- TL1A Binding Level (Late) [2]: 47 RU
B20: 320-509 (antibody, human IgG1, name in Kabat numbering, V domains shown)
VH: B1 VH with Q51L, P53H
VL: B1 VL
notes: as for B1

- TL1A Binding Level (Early) [1]: 48 RU
- TL1A Binding Level (Late) [2]: 46 RU
B21: 320-493 (antibody, human IgG1, name in Kabat numbering, V domains shown)
VH: B1 VH with Q51D
VL: B1 VL
notes: as for B1

- TL1A Binding Level (Early) [1]: 44 RU
- TL1A Binding Level (Late) [2]: 33 RU
B22: 320-510 (antibody, human IgG1, name in Kabat numbering, V domains shown)
VH: B1 VH with Q51L, P53K
VL: B1 VL
notes: as for B1

- TL1A Binding Level (Early) [1]: 92 RU
- TL1A Binding Level (Late) [2]: 86 RU
B23: 320-516 (antibody, human IgG1, name in Kabat numbering, V domains shown)
VH: B1 VH with Q51L, N54Q
VL: B1 VL
notes: as for B1

- TL1A Binding Level (Early) [1]: 27 RU
- TL1A Binding Level (Late) [2]: 24 RU
B24: 320-507 (antibody, human IgG1, name in Kabat numbering, V domains shown)
VH: B1 VH with Q51L, P53Q
VL: B1 VL
notes: as for B1

- TL1A Binding Level (Early) [1]: 166 RU
- TL1A Binding Level (Late) [2]: 152 RU
B25: 320-521 (antibody, human IgG1, name in Kabat numbering, V domains shown)
VH: B1 VH with Q51L, N54W
VL: B1 VL
notes: as for B1

- TL1A Binding Level (Early) [1]: 69 RU
- TL1A Binding Level (Late) [2]: 53 RU
B26: 320-500 (antibody, human IgG1, name in Kabat numbering, V domains shown)
VH: B1 VH with Q51L, N52D
VL: B1 VL
notes: as for B1

- TL1A Binding Level (Early) [1]: 126 RU
- TL1A Binding Level (Late) [2]: 118 RU
B27: 320-512 (antibody, human IgG1, name in Kabat numbering, V domains shown)
VH: B1 VH with Q51L, P53W
VL: B1 VL
notes: as for B1

- TL1A Binding Level (Early) [1]: 141 RU
- TL1A Binding Level (Late) [2]: 129 RU
B28: 320-522 (antibody, human IgG1, name in Kabat numbering, V domains shown)
VH: B1 VH with Q51L, N54Y
VL: B1 VL
notes: as for B1

- TL1A Binding Level (Early) [1]: 84 RU
- TL1A Binding Level (Late) [2]: 77 RU
B29: 320-495 (antibody, human IgG1, name in Kabat numbering, V domains shown)
VH: B1 VH with Q51K
VL: B1 VL
notes: as for B1

- TL1A Binding Level (Early) [1]: 55 RU
- TL1A Binding Level (Late) [2]: 50 RU
B30: 320-517 (antibody, human IgG1, name in Kabat numbering, V domains shown)
VH: B1 VH with Q51L, N54D
VL: B1 VL
notes: as for B1

- TL1A Binding Level (Early) [1]: 217 RU
- TL1A Binding Level (Late) [2]: 196 RU
B31: 320-519 (antibody, human IgG1, name in Kabat numbering, V domains shown)
VH: B1 VH with Q51L, N54K
VL: B1 VL
notes: as for B1

- TL1A Binding Level (Early) [1]: 118 RU
- TL1A Binding Level (Late) [2]: 110 RU
B32: 320-505 (antibody, human IgG1, name in Kabat numbering, V domains shown)
VH: B1 VH with Q51L, P53A
VL: B1 VL
notes: as for B1

- TL1A Binding Level (Early) [1]: 88 RU
- TL1A Binding Level (Late) [2]: 65 RU
B33: 320-504 (antibody, human IgG1, name in Kabat numbering, V domains shown)
VH: B1 VH with Q51L, N52Y
VL: B1 VL
notes: as for B1

- TL1A Binding Level (Early) [1]: 90 RU
- TL1A Binding Level (Late) [2]: 82 RU
B34: 320-498 (antibody, human IgG1, name in Kabat numbering, V domains shown)
VH: B1 VH with Q51L, N52S
VL: B1 VL
notes: as for B1

- TL1A Binding Level (Early) [1]: 97 RU
- TL1A Binding Level (Late) [2]: 89 RU
B35: 320-506 (antibody, human IgG1, name in Kabat numbering, V domains shown)
VH: B1 VH with Q51L, P53S
VL: B1 VL
notes: as for B1
